experiment: soluble on expression in E. coli; label from the status in PepcDB or PDB records

| Sequence | soluble on expression in E. coli |
| --- | --- |
| EITPLIFQKQTTEEVQNLKPYTALQLEGRDIYIREGCNVCHSQMVRPFRSETERYGHYSVAGESVWEHPFLWGSKRTGPDLARVGGRYSDEWHRVHLLNPRELVPESNMPAFPWLAKNTLDGKYTQQKMTLFRDKFGVPYTDEQIANATKDVEGKTEMDAIIAYLQSLGHAMK | not soluble |
| MMAKLVVCIIDGMADPPPPAGGVTPLAAAHTPHCDTLARHSVAGLCHVIQPEAVPGSEAGLSALLCCEAAASIARGPVEALAQGDPVAPHETVWRLNLVSLGPRGNYYNPAPLLDAATETAARKMLDRALGTQGYSLLGGKGFRHLCAGTEPPVLRDGPQDVCGMTPDTGQADLNSYCPRLARAMTEANVLFRRSRMDLAVWPWGAGTMPDLPGFAETTGQTGALAGGVPLARGLALALGMTAPSIAGATGGIDTDLGAKTRAAIALAAGHDVVYLHVEAPDLHAHALDRVAKRRAIERIDAEVVGPLHMALPDATLLITCDHATDCATGRHMAIPVPFILHKPDGPQDGIATFSEAASARTGIRIDSAATLVRLALADLEHHHHHH | soluble |
| MAHHHHHHMQLMRAVTLKGFGDTDMLQISRIPKAVITRGRDILIKVSAAGVNRADAAQRKGHYLPPKGSSEVLGLEVSGIVEEVGVDVKDFKEGDKVMALLPGGGYAEYAVAHEGSVMHIPQGYSFIEAAAIPEAFLTAWQALKYHGDCCKGQKVLIHAGASGVGTAAAQLVEKYFQATALTTSSESKVEVCKNFASINFTRTPDETGMCFSPKVKRLLGEGAINLVLDSVFGGSYISEDAAVLAKDGRIVVLAFMGGATVHLNCLPLLRQRAHVMFSKLRCQSDDYKQNLVDTFEEAVIPYMNERLIVPVANKTYPLEEVAQAHMRLDDSKAWGKIVLTFNSHLSATSTNPPPTLTA | not soluble |
| MGSDKIHHHHHHMIKSISTGRTQQGYFSPVEKQMFGAALLADPDTSSPFSDVLSIAESGCSSSLLQQLTSVTKRFRHLKPEQYLLRQQDQFDSLFVVKKGALKSYRLTPEGEEIVTGFYMEGDVIGAGGLGNHKHFYSVVALEPSSLYEIPFAKLLQQSAMEPIVQQLMLKLLSQEMQADQSLRLIQLKQVKAAIASLILNIANRLTATQITLPMSRVDIANLLGVASETVCREFTRLQKQGLLSVNRKHIVINDLPQLQLAAGGDCY | not soluble |
| MNELLQDRVPPQNIEAEQAVLGSIFLDADVLIEAMEYVEPKDFYRRSHQLIFQTMMTLSDRNEAIDVVTIKDRLEQENLLEDVGGLSYLSDLALAVPTAANVIYYAKIVEQKSLLRNLIQTATEIVTKGFEQGEDVESILDDAERSILEVSEKRNRSGFLSISDVLNTTIANIDQLYQNDEEITGLPTGYQALDKMTAGLQAEELIILAARPAVGKTAFALNIAQNVGTKTDKAVAIFSLEMGAESLVNRMLCAEGSIEASHLRTGQLSEEEWQNLIIAMGSLSRANIYIDDTPGIKITEIRAKCRKLAQEKGNLGLILIDYLQLIEGTGKENRQQEVSDISRQLKKLAKELKVPVIALSQLSRGVEQRQDKRPVLSDIRESGSIEQDADIVAFLYRDDYYDRGEGEDGDHEPPEVDNVVEVIIEKNRSGARGTVELLFIKEYNKFSSLSPRTEF | not soluble |
| MGQSTSKVPPSSPPNEPKFVQNTPISSPGFGRAQTMLDVSQLAAAAATLDAPTLQRSSSDTALNTSMTTTTVTQTACQKSYQQALEWGRNEQFLKLAHTFHTNNY | not soluble |
| MAWTSTLPAHLLNLIKNSKYVHVATCSKDCIPSVALMNYIYVPGEKLFGQTDNKNDYIIFVSPQDTQKFYNIKENPKVALLFHDWIIANNLSVGKESISGTPTPTSIPHEEQRQSELLNLLQELNQAELNQMSASIGGETEIVNPESEESKYYKDLILKANPDAKAFIFEKNTAVVKVRIDNARVSNNENRTMFLSKGKS | soluble |
| VRLSNPDILLNIHVSHEEVTLSLDSSGDSLHKRGYRVAETTAPLNEVLAAGILLKAGWDGSTDLIDPMCGSGTFLIEAALIACNIAPGIYRRGFAFQRWADFDLDLYDELFHDDSAERVFDHIIYGSDILPQAVAAARSNVERAGLGRYISLSVLPMQQRPKPESKAMLVMNPPYGERIKVEDMQQLYTMIGERLKHNYAGCSAWILAFKPEHFNHIGLRQSHREKLMNGALECELRGYELFEGRR | not soluble |
| QELPTDLSEVFVDFSKEPLASGSVAQTHRARLLSGQEVIIKIQRPGIDDIVKEDIQLLIKLARHIPKHFISMVDVQEVLENLCETLIKELDFKNEAEAMKRFRANNKRVVCLGVPEVY | not soluble |
| MSNQEPYRIPKRTASDPNQSGSQGSCVRPNQEGNVKKEESVNSAPRRMFTLPSSSSTSGAQVFNPIGKCQVQTNSFKIDITKMPKRLLRLSMETRLCGGKTELNLNDGVQAVAGNLNSQEDFTTQEWSQISNYLRKKNAEFKVKISPNGFVYTNGPNSLSDANRQELPRLVEIATSEVLNTPEYLQFGNQTYAVNEPAVSSPDALSEIRSGFDKSVRLVDGENGSTEIIMTIDNKLAPFHKSTSVLKMICDKFEEIVNPARQHRGSQDRRGDRDRGYRGGRSYGHDNRRRSRSRSPQDRGDRGDRGNHHRDHNEDWDERKVKEVERRLLEEPRALGSIADALKGLIVESVHLSKDVNRNSRIKLNEGKNDEQEISVADYYLKQYNYKLKFPYLPMIVSKRFRSETMFPVELLKIVPGQKISIQKINPNVQSAMTGPNSILPSKHVRIVARILESSLKIASNPYLKTFGIRISKDPIKLEAKILSPAQLSFNKYSIMPKPGSVQFEPSREDKFFKPAKIYEVAVIAFRVVSINLSDFCMKLCDLCRRSGLEIRRETRDWIKIENFNPTSTIELKEQMKRLQQSNCSIIIGITEEKKPEVHDVLKYFEAAVGLQTMQIHSKTAGFIISGNGQTAGNVIKKLNLKCGGINYIVEVPQSFNRTVVCSNNSFVQKKLFDGTQFIGFEMTHGAARTLFDKSNGTFDGEPTIVGCAYSLQKATDLGGFNWFQEQNEYRLKNLGTHIPKCLQYYKESSGSLPEKIVIYRTGAGEGDFDRVQQEITEIRSSFAEVQEGYKPSLVVIVANKTSHLRVFPVEIREGDTAMKQNVRSGTCLDGKITSAGREEFVLISQTALISTAKPTKYTIAANDPKWSKNEVMNLTYILSFAHQVCYQPPAVPHILYAADNLAKRGRNNFIQHKKLGELSKTIQATLTKYSDLNIEMDSKELSGELVEDITKSMNVMAIKARNFWA | not soluble |
| MEKNMRPYTVLWADDEIDLLKPHILFLEQKGYQVTPVLSGNDAIEAVQNNDFDIVFLDENMPGIGGLDALQKIKELKPYTPVVMITKSEEEHIMTQAIGGKIADYLIKPVNPNQLLLSLKKNLQQHSIISETTNTNYRQEFVQLGTQMSGKLSFEEWKELYRRIVFWEIELEQADRQMGELLEMQKQEANRLFARFVTQNYREWIAKPDTRPTMSPDLFKQKVFPLLDNGEKVFFILIDNFRQDQWESVKSMLSEFYTFEEDMYLSILPTATQYARNAIFSGLMPLQIEKMFPDLWVDEESEEGKNLNEEPMIRTLIERYRKHYSFSYNKVYETKFGERLLGQIRSLSQNQLNVIVLNFVDMMSHARTDSKMIRELASNEAAYRSLTKSWFKHSTTYNLFRSIAEMGYKVVLTTDHGTIQVKNPVKVIGDRSTNTNLRYKIGKNLDYNPKEVFEIKDPASVGLPHNNLSDKFIFTKEDDFFAYPNNYNYYVQYYRNTFQHGGISLEEMLVPVITMQPK | not soluble |
| MSLSKEKEVLLNEEIRADEIRCVGDDGKVYGIISSDEALEIANRLGLDLVMIAADAKPPVCKIMDYGKFRYQQEKKQKEAKKKQKVIDIKEIKLSVKIAQNDINYKVKHALEFLEQGKHVRFRVFLKGREMATPEAGVALLEKIWTMIENEANRDKEPNFEGRYVNMLVTPKKAEGHHHHHH | soluble |
| MHEYYYIYWYLSEFLYAWLMSTLSRADGSQMAEERIMEEQQKGRSSKKTKKKKKVRPLSREITMSQAYQNMCAGMFKTMVAFDMDGKVRKPKFELDSEQVRYEHRFAPFNSVMTPPPVHYLQFKEMSDLNKYSPPPQSPELYVAASKHFQQAKMILENIPNPDHEVNRILKVAKPNFVVMKLLAGGHKKESKVPPEFDFSAHKYFPVVKLVLEHHHHHH | not soluble |
| QTVIKGLVLAADNEAPVSYASIYVAETKSGVVADESGRFILRLHPGRYRLAIRSMGYTPLETELLVGEKSEEKTFRLSSVIYDLKEVEVIGKRPKEDPAYPIMRELIARTPVYEHMVKSYQAKVYTKGSMRLDKLPFWLRYKKADGISAKDLEKKRFVIESQASLEFRHPNKYNKQVRAMRSSIPDDLKSDTTDYMQIISTNIYAKEFSLDGIVNMASPIRTGVLESYTYKLEGTSREKERKVYHISFKGRRDAMRGELWVIDSIWCLQALKLEIKAYDMIRYKVDISLNPLEKDVYLPTTYAIGMEMQSMGLKLEYQYFSSLVYDSLEIDRKLLSTARRAEGLRFRTNREVNRHLRMLESRLDTLGYHLPDKYMLPDTELQAKVRFDSLAFDRDSSYWDAVVTAPLTDEEAQSYANRDSLMQAFEKKRRFGGGREGERTGRTSILGAILGGHDYKMGEGTTLGFNGLIRGSLYDYRYTDGFWLGQSFFFRQKFSKGVDLTLRPILYYTTHRRKLYWDVRADFRYAPLSGGLLSLSAGRQSADLTGPFANTDWRIQTFLTTLVDGRGHLMLYDKKYLRLSNQIDLLPGLQLFLFAEGRHSSPLAENRVWGIFKKPIKNKLIGGIASSPDSLLYSMPDHRSLTVGGSIRYNPAPYYRLDKDGRKRYDGVGTRAPLFGLTYRQAIPLGREHDSDYIYLSGSVRQNLRLNPLHSLYYHFTVGSYFRRHTVHLDEQRYLKADNALFQIGGTLHDSFQTLPPYSYTDQNFLILQTR | not soluble |
| MDTSSSCKAFLLDSALAVKWPRDKETAPRLPQHRGWNPGDAPQTSQGRGTGTPVGAETKTLPSTDVAQPPSDSDAVGPRSGFPPQPSLPLCRAPGQLGEKQLPSSTSDDRVKDEFSDLSEGDVLSEDENDKKQNAQSSDESFEPYPERKVSGKKSESKEAKKSEEPRIRKKPGPKPGWKKKLRCEREELPTIYKCPYQGCTAVYRGADGMKKHIKEHHEEVRERPCPHPGCNKVFMIDRYLQRHVKLIHTEVRNYICDECGQTFKQRKHLLVHQMRHSGAKPLQCEVCGFQCRQRASLKYHMTKHKAETELDFACDQCGRRFEKAHNLNVHMSMVHPLTQTQDKALPLEAEPPPGPPSPSVTTEGQAVKPEPT | soluble |
| MSAPSRTVLRELTATKYVANYTDEYQLETARAGCSALPPQPNINHDAIIEGHGEDVELVEDKNYRSLHRIDETPKLVDKKPSKAIIRDEAVKVLRDIQTMPIENLRLKRYDFFSQRWFNTTRESEKALVEHVLLHPNQRPHYFAAQCRMLSAEDISSLILTSLLAEPKETGQNVVRFAIQAKTAMPFQQLFAILEKLEMEIEGFQMTDSFVVATLIRSQSKSTTTRRLRTTNCREYGNLEPGLDSQGRLMASTASITCSIRGKRHVETRIVYNNNSSARDPFRRYRYIELEQTVKCMNRRVQIVEEPVEFHEFEVENDMVSLRNGMVLVDDLISFLETFELDEE | not soluble |
| MALAMNRSITAITVTHNSAHTVRGALARLPPGVEIVCVDNASTDDLSTALSDLAVHRIDNPVNLGFGRACNIGAAAATGEYLLFINPDVRLGTDAVDALLQAAERYPNCGVFVPRTNTVDGRLWFREESEIDRLSGVSLPTRIRQVWGDCCVRFVNGGVFMIKRTLFLDTGGFDEDIFLYFEDDDLSYRLLQRDEPMILVSGAHAVHDIGTSVAQSTRSRIFRYRSKMRSEIHLRKKYGIAYSPFVDILRYSTKIGFYCLTLNRNRLINSLGRLIGIFDSILDRSRANRNGGYVALEHHHHHH | not soluble |
| MDQECIENYAKVNGIYIYYKLCKAPEEKAKLMTMHGGPGMSHDYLLSLRDMTKEGITVLFYDQFGCGRSEEPDQSKFTIDYGVEEAEALRSKLFGNEKVFLMGSSYGGALALAYAVKYQDHLKGLIVSGGLSSVPLTVKEMNRLIDELPAKYRDAIKKYGSSGSYENPEYQEAVNYFYHQHLLRSEDWPPEVLKSLEYAERRNVYRIMNGPNQFTITGTIKDWDITDKISAIKIPTLITVGEYDEVTPNVARVIHEKIAGSELHVFRDCSHLTMWEDREGYNKLLSDFILKHL | soluble |

From the DeepSol protein solubility set
